From patent US20220112288A1 (published 2022)
Substitutions are numbered along the chain they refer to.

B1: 75110_07J24A (antibody, V domains shown)
VH: QAQLQESGPGLVKPSETLSLTCTVSGGSISSYYYNWIRQPAGKGLEWIGRIYTSGRTDYNPSLKSRVTMSADTSKNQFSLKLSSVTAADTAVYYCARDEGPTDAFDIWGQGTMVTVSS
VL: DIVMTQTPLSLPVTPGEPASISCRSSQSLLDSDDGNTYLDWYLQKPGQSPHLLIYTLSYRASGVPDRFSGSGSGSDFTLKISRVEAEDVGVYYCMQRIEFPFTFGPGTKVDIK
notes: Tested as antibody purified from AlivaMab Mouse Kappa hybridoma (human V regions, kappa light chain, mouse Fc captured by anti-mouse Fc sensors); also called 75110_07124A
B2: 75110_06C16A (antibody, V domains shown)
VH: QVQLQESGPGLVTPSETLSLSCTVSGGSISDYYWSWIRQPGGKGLEWIGRIYSSGSTNYNPSLKSRVTMSVDTSKNQFSLKLSSVTAADTAVYFCARDREDYYYYGMDVWGQGTTVTVSS
VL: DIQMTQSPSSLSASVGDRVTITCQASHDISNYLNWYQQKPGKAPKLLIYAASNLETGVPSRFSGSGSGTDFSFTISSLQPEDIATYYCQQYDHLPLTFGGGTKVEIK
notes: Tested as antibody purified from AlivaMab Mouse Kappa hybridoma (human V regions, kappa light chain, mouse Fc captured by anti-mouse Fc sensors)
B3: 75110_06K03A (antibody, V domains shown)
VH: QVQLQESGPGLVKPSETLSLTCTVSGGSISTYYWSWIRQPAGKGLEWIGRINTSGSTTYNPSLKSRVTMSVDTSKNQFSLKLSSVTAADTAVYYCARELERYYYYGMDVWGQGTTVTVSS
VL: B2 VL with H27Q, A50Y, N53I, S72T, H93S
notes: as for B2
B4: 75110_08D24A (antibody, V domains shown)
VH: B3 VH with T31G, Y32F, N52Y, G55E, S56N, T58N, E98D, L99R, R101G
VL: B2 VL with H27Q, S72T, H93S, L96I, G100Q, K103R, V104L
notes: as for B2
B5: 75110_06G04A (antibody, V domains shown)
VH: B3 VH with Q5L, T31S, N52Y, T53I, T58N, V71I, K75E, K81N, Y102P
VL: B2 VL with H27Q, A50N, N53T, S72T, H93N, I106F
notes: as for B2
B6: 75110_06E14A (antibody, V domains shown)
VH: B2 VH with T13K, S21T, D31N, Y33F, G41A, S56N, F94Y
VL: B2 VL with H27Q, A50G, N53I, S63T, S72T, H93S, L96I, G100Q, K103R, V104L
notes: as for B2
B7: 75110_08M20A (antibody, V domains shown)
VH: B3 VH with G8D, T31S, N52Y, T53A, T58N, E98D, L99R, R101G
VL: B2 VL with H27Q, N31K, K45N, S72T, T85A, H93S, L96I, G100Q, K103R, V104L
notes: as for B2
B8: 75110_06D16A (antibody, V domains shown)
VH: QVQLQQWGAGLLKPSETLSLTCAVYGGSFSGYYWSWIRQPPGKGLEWIGEINHSGSTNYNPSLKSRVTISVVTSKNQFSLKLSSVTAADTAVYYCARVLNWFDPWGQGTLVTVSS
VL: DIQMTQSPSSVSASVGDRVTITCRASQDIADWLAWYQQKPGKAPKLLIYAASSFQSGVPSRFSGSGSGTDFTLTISSLQPEDFATYFCQQANSFPYTFGQGTKLEIK
notes: as for B2
B9: 75110_07B16A (antibody, V domains shown)
VH: B8 VH with P40S, H53Q, V72D, N76D, L99I, P104S, T109S
VL: B8 VL with D28G, A30S, D31S, A50D, P80T, E81D, F87Y
notes: as for B2
B10: 75110_08H11A (antibody, V domains shown)
VH: EVQLVESGGGLVQPGGSLRLSCAASGFTFSSYDMHWVRQATGKGLEWVSTIGTAGDTYYPGSVKGRFTISRENAKNSLYLQMNSLRAGDTAVYYCARGGYSYYGMDVWGQGTTVTVSS
VL: EIVLTQSPGTLSLSPGERATLSCGASQSVSSTYLAWYQQKPGQAPRLLIYGASSRATGIPDRFSGSGSGTDFTLTISRLEPEDFAVYYCQQFGSSPFTFGPGTKVDIK
notes: Tested as antibody purified from AlivaMab Mouse Kappa hybridoma (human V regions, kappa light chain, mouse Fc captured by anti-mouse Fc sensors); also called 75110_08H1lA
B11: 75110_07E04A (antibody, V domains shown)
VH: B10 VH with A24V, N76K, S77F, S101Y
VL: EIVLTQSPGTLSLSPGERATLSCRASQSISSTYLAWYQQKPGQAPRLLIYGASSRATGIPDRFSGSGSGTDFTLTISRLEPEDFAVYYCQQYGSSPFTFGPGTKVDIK
notes: as for B2
B12: 75110_08K12A (antibody, V domains shown)
VH: B10 VH with K75E, V92L, G99D, S101Y
VL: B10 VL with G24R, S54N, S94T
notes: as for B2
B13: 75110_10L22A (antibody, V domains shown)
VH: B10 VH with S84G, G99N, S101F, M105V
VL: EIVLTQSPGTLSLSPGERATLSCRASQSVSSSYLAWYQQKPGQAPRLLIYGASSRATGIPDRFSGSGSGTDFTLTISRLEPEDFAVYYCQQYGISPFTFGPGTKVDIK
notes: as for B2
B14: 75110_10N21A (antibody, V domains shown)
VH: B10 VH with A40V, S101Y
VL: B10 VL with G24R, V29F, S30I, T32S, E80D, F92S, S94N, I107V
notes: as for B2
B15: 75110_10O16A (antibody, V domains shown)
VH: B10 VH with S31N, Y32S, Y100L, S101Y
VL: B10 VL with I2N, G24R, T32S, Q90H
notes: Tested as antibody purified from AlivaMab Mouse Kappa hybridoma (human V regions, kappa light chain, mouse Fc captured by anti-mouse Fc sensors); also called 75110_10016A
B16: 75110_14H13A (antibody, V domains shown)
VH: B10 VH with S31N, E72K, N83I, Y100D, S101Y
VL: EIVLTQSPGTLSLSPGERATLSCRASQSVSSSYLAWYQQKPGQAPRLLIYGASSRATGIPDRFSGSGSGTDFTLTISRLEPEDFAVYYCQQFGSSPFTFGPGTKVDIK
notes: as for B2
B17: 75110_08H06A (antibody, V domains shown)
VH: B10 VH with S31N, S101D
VL: B10 VL with G24R, V29I, S30T, T32I, Q38R, F92Y
notes: as for B2
B18: 75110_05K11A (antibody, V domains shown)
VH: B10 VH with A40P, G61A, Y100F, S101Y
VL: B10 VL with A19V, G24R, S31N, A85V, F92H
notes: as for B2
B19: 75110_13C07A (antibody, V domains shown)
VH: B10 VH with G10V, S31N, I69L, N83H, G99A, S101G
VL: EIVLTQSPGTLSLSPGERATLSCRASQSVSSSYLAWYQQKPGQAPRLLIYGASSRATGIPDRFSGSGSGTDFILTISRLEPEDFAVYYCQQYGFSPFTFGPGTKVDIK
notes: as for B2
B20: 75110_07J02A (antibody, V domains shown)
VH: EVQLVESGGGLVQPGGSLRLSCAASGFTFSSYWMSWVRQAPGKGLEWVANIKEDGSEKYYVDSVKGRFTISRDNAKNSLYLQMNSLRAEDTAVYYCARDGSYSGYGMDVWGQGTTVTVSS
VL: AIQMTQSPSSLSASVGDRVTITCRASQGIRNDLGWYQQKPGKAPKLLIYAASSLQSGVPSRFSGRGSGTDFALTISSLQPEDFATYYCLLDYNYPYTFGQGTRLEIK
notes: Tested as antibody purified from AlivaMab Mouse Kappa hybridoma (human V regions, kappa light chain, mouse Fc captured by anti-mouse Fc sensors); also called 75110_07102A
B21: 75110_05L07A (antibody, V domains shown)
VH: EVQLVESGGGLVQPGGSLRLSCAASGFTFSSYWMSWVRQAPGKGLEWVANINQDGSDKYYVDSVKGRFTISRDNVKNSLYLQINSLRAEDTAVYYCAREGGQWLTLDYWGQGTLVTVSS
VL: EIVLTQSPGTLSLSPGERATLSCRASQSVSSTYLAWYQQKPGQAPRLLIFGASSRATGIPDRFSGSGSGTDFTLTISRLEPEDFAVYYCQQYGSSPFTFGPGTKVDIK
notes: as for B2
B22: 75110_11D03A (antibody, V domains shown)
VH: B21 VH with S56N, D57E, V75A, Y80F, I83M, T105A, T113A
VL: B8 VL with D28G, A30S, D31S, L46F, Y49S, A50G, F54L, F87Y, Y96W, L104V
notes: as for B2
B23: 75110_12H17A (antibody, V domains shown)
VH: B21 VH with S31D, N52K, Q53E, S56N, D57E, V75A, Y80F, I83M, T105A, T113A
VL: DIQMTQSPSSVSASVGDRVTITCRASQGISSWLAWYQQKPGKAPKFLISGASSLQSGVPSRFTGSGSGTDFTLTISSLQPEDFATYYCQQANSFPWTFGQGTKVEIK
notes: as for B2
B24: 75110_12H19A (antibody, V domains shown)
VH: EVQLVESGGGLVQPGGSLRLSCAASGFTFSSYWMSWVRQAPGQGLEWVANINEDGNEKYHVDSVKGRLTISRDNAKNSLYLQMNSLRGVDTAVYFCAREGGQWLALDYWGQGALVTVSS
VL: B23 VL with T20S, F46L, S49Y, S53G, T63S
notes: as for B2
B25: 75110_07H07A (antibody, V domains shown)
VH: B21 VH with L4V, N52K, Q53E, D54E, D57E, V75A, I83M, A97V, T105A
VL: B23 VL with A13G, F46L, S49F, T63S, E105Q
notes: as for B2
B26: 75110_09N20A (antibody, V domains shown)
VH: B21 VH with Q53E, D57E, V75A, I83M, A97V, T105A
VL: B23 VL with F46L, S49Y, G50A, R61S, T63S, S76N, E105A
notes: as for B2
B27: 75110_09G15A (antibody, V domains shown)
VH: B21 VH with S31D, D57E, Y60S, V75A, I83M, V93I, Y94F, T105A
VL: B23 VL with F46L, S49Y, T63S, S76N, A84T, S93I
notes: as for B2
B28: 75110_12C19A (antibody, V domains shown)
VH: B21 VH with N52K, Q53E, V75A, I83M, Y94H, A97V, T105A
VL: B23 VL with A13G, F46L, S49Y, T63S, A84V
notes: as for B2

Target: T1, Recombinant human CD4 (R&D Systems, Cat. 10327-CD) (human, UniProt P01730 26-390, limits assumed)
T1 construct: Bought protein; also called huCD4
Test: BLI (Octet Red384), purified antibody on anti-mouse Fc sensors, human CD4 100/50/25 nM, global 1:1 fit;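 also: antibodies loaded at 10 µg/mL, curves fitted across association and dissociation phases, with an unrelated mouse-derived antibody serving as internal reference control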
Method: A three-point, 1:1 serial dilution of human and rhesus CD4 proteins were prepared using kinetics buffer as diluent. […] 10 mM Glycine pH 1.7, and kinetics buffer were used to regenerate the AMC biosensors. […] An irrelevant antibody derived from the Alivamab mouse was included in the assay as an internal reference control.
After completion of the kinetic characterization assays, data was analyzed in Forte Bio analysis software v11. The Y-axis was aligned to the final 5 seconds of the baseline step, with inter-step alignment to the dissociation step. Savitzky-Golay Filtering was used to smooth the data. Kinetic curves were fit to both association and dissociation steps using a 1:1 stoichiometry model.

Binder	Kd [nM]	Response	koff [s⁻¹]	kon [M⁻¹ s⁻¹]
B1	7.1	0.19	0.0006	85000
B2	16	0.15	0.0012	75000
B3	2.2	0.11	3.6e-05	16000
B4	22	0.11	0.00027	12000
B5	6	0.07	0.0015	250000
B6	14	0.11	0.00026	18000
B7	9.2	0.16	0.00091	99000
B8	2.8	0.25	0.00028	100000
B9	3	0.24	0.00043	140000
B10	26	0.04	3.6e-05	1400
B11	< 0.001	0.07	< 1e-07	35000
B12	220	0.05	0.00022	
B13	12	0.03	0.00045	37000
B14	0.59	0.09	3.2e-05	55000
B15	2.4	0.08	0.00035	140000
B16	2.1	0.08	0.00011	54000
B17	11	0.04	0.00043	39000
B18	< 0.001	0.04	< 1e-07	36000
B19	1.7	0.11	0.00016	92000
B20	14	0.1	0.0022	160000
B21	15	0.28	0.0016	110000
B22	3.2	0.09	0.0013	420000
B23	26	0.19	0.0033	120000
B24	13	0.25	0.0022	170000
B25	9.4	0.16	0.0012	130000
B26	53	0.09	0.0045	86000
B27	48	0.21	0.004	85000
B28	5	0.08	0.0015	290000
